Laboratory results: patent US20230093169A1, “COMBINATIONS OF ANTIBODY CONSTRUCTS AND INHIBITORS OF CYTOKINE RELEASE SYNDROME AND USES THEREOF” (AMGEN RESEARCH (MUNCH) GMBH, priority 2020, published 2023)

Columns and labels:
[1] = tested on: VCAM-1 expression on CD31+HUVEC; assay: Blinatumumab VCAM assay: VCAM-1 on CD31+ HUVEC in co-cultures with T cells and NALM-6; format: cell-based, human; conditions: isolated T cells and NALM-6
Description: FIG. 7. VCAM-1 Expression on HUVEC in AMG 103 Co-culture Assays: VCAM-1 expression by flow cytometry. […] expression levels are expressed as Median Fluorescence Intensity (MFI). VCAM-1 expressing HUVEC are expressed as percentage of CD31+HUVEC. Error bars indicate the standard error of the mean of duplicate measurements. Two PBMC donors were used in this experiment.
The effect of blinatumomab (AMG 103) on T cell activation and the induction of VCAM-1 on endothelial cells was analyzed in co-cultures of HUVEC, isolated T cells and CD19-expressing NALM-6 target cells. VCAM-1 expression on CD31+HUVEC was analyzed by flow cytometry.

[2] = tested on: MCP-1 release in HUVEC co-cultured with CD19-expressing NALM-6 cells and human PBMC; assay: BiTE-induced MCP-1 release in co-culture of HUVEC, NALM-6 cells and human PBMC, with or without etanercept; format: cell-based; conditions: HUVEC + NALM-6 + human PBMC; after 2 and 5 hours
Excerpt: FIG. 6. AMG 103-mediated MCP-1 Secretion: MCP-1 concentrations in cell culture supernatants were quantified by the BD Cytometric CBA human MCP-1 Flex Set. Error bars in both graphs indicate the standard error of the mean of duplicate measurements.
Human umbilical vein endothelial cells (HUVEC) were co-cultured with CD19-expressing NALM-6 cells and human PBMC and increasing concentrations of BiTE® antibody construct blinatumomab (AMG 103) against CD19 in the absence or presence of etanercept. MCP-1 concentrations were determined with the BD Cytometric CBA human MCP-1 Flex set system (BD, Germany after 2 and 5 hours, respectively according to the manufacturer's instructions and are shown in FIG. 6.

TNF-α = biological target: T1, TNF-α (Homo sapiens, UniProt P01375); assay: Etanercept prophylaxis for PSMA-targeting BiTE-related CRS in humans; format: in vivo
T1 construct: endogenous in cells; host or cells: human subjects (clinical cohort), in vivo
T1 sequence (P01375 77-233 limits assumed): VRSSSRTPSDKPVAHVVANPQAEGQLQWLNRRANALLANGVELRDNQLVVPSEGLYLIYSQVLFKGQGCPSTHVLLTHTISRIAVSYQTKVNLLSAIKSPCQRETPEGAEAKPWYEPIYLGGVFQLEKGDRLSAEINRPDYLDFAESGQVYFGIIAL
Description: Etanercept premedication occurred within two days before BiTE administration to assess whether prophylaxis with the TNF-α inhibitor decreases the frequency and severity of CRS without compromising the efficacy of the BiTE. In an initial cohort of 6 to 8 subjects, the PSMA-targeting BiTE is administered. In addition to dexamethasone prophylaxis, subjects in the cohort received prophylaxis with etanercept (50 mg subcutaneously [SC]) two days prior to each dose of PSMA-targeting BiTE in the first administration cycle.
Subject incidence of safety events, including dose-limiting toxicities (DLTs), serious adverse events (SAEs), and adverse events leading to treatment discontinuation or dose reduction, will be reviewed when at least 3 DLT-evaluable subjects complete the DLT window. Subjects receiving three individual increasing doses of PSMA-targeting BiTE with etanercept prophylaxis experienced 1 DLT/SAE (grade 3 (G3) thrombocytopenia), 1 SAE (Grade 3 (G3) Afib), 0 dose reductions, 1 discontinuation (tolerability), CRS events in cycle 1: 4 grade 2 (G2), no grade 3/4 (G3/4). […] In the latter group 1 DLT/SAE (G3 Hypoacusis), 2 SAE (grade 3 (G3) Pruritus, grade 2/3 (G2/G3) CRS), 2 dose reductions, 2 discontinuations (disease progression), and CRS events in cycle 1: 4 grade 1 (G1), 7 grade 2 (G2), 4 grade 3 (G3) were observed. In the etanercept prophylaxis group the PSMA-targeting BiTE was administered at the same dosages and frequency as in the group without etanercept prophylaxis.

[3] = cited from earlier work
[4] = subjects on PSMA-targeting BiTE with prophylaxis

AMG 103: BiTE® antibody construct against CD19
VCAM-1 expression on CD31+HUVEC ([1]; co-cultures of HUVEC, flow cytometry): up-regulated

etanercept
effect on BiTE molecule (AMG 103) induced MCP-1 release [2]: Blocked | sensitivity of AMG 103-induced VCAM-1 up-regulation to TNF blockade [1]: sensitive | CRS safety profile compared with no premedication or premedication with tocilizumab (TNF-α; PSMA-targeting BiTE at same dosages and frequency): improves CRS safety profile | CRS events in cycle 1, grade 2 (G2) (TNF-α; [4]): 4 | CRS events in cycle 1, grade 3/4 (G3/4) (TNF-α; [4]): no grade 3/4 | SAE (TNF-α; [4]): 1 | discontinuations (TNF-α; [4]): 1 | dose reductions (TNF-α; [4]): 0 | DLT/SAE (TNF-α; subjects on PSMA-targeting BiTE with prophylaxis (etanercept 50 mg SC two days prior; tocilizumab 8 mg/kg two hours before first dose)): 1 | half-life ([3]; mean±SD): 102 ± 30 h | time of maximum concentration [tmax], mean±SD ([3]; subcutaneous, slow absorption): 69 ± 34 h

tocilizumab: monoclonal antibody that competes with the binding of IL-6 to its receptor, IL-6R
CRS events in cycle 1, grade 1 (G1) (TNF-α; in vivo): 4 | CRS events in cycle 1, grade 2 (G2) (TNF-α; in vivo): 7 | CRS events in cycle 1, grade 3 (G3) (TNF-α; in vivo): 4 | SAE (TNF-α; in vivo): 2 | discontinuations (TNF-α; in vivo): 2 | dose reductions (TNF-α; in vivo): 2
